Measurements from patent publication US20260265347A1.

Target: biotinylated VP1 pentamer of BKV genotype I (BK virus genotype I) (UniProt P03088)
Assay: BLI, biotinylated VP1 pentamer on streptavidin sensor, mAb 0 to 40 nM

## MTX005 from Memo Therapeutics AG (referred as 319C07 in WO2021/250097) (antibody)
  Kd: 17.9 nM
